From US20120058906A1 (published 2012)

T1: rHuman Erythropoietin R/Fc Chimera, CF (R&D Systems Cat#963-ER) (human, UniProt P19235 25-250)
T1 construct: Bought reagent; also called EPO R/Fc; Epo R; Fc part of the bought chimera not given
T1 sequence: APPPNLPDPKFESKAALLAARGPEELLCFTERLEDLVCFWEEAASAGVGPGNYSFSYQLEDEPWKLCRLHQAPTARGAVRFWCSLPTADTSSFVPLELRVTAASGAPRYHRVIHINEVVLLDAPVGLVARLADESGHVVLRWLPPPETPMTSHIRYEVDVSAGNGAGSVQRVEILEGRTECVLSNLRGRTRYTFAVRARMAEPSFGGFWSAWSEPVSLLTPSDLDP

B1: Fab VH1-46_IGHD3-10*01_IGHJ4*01 & B3_IGKJ1*01 (Fab, V domains shown)
VH: QVQLVQSGAEVKKPGASVKVSCKASGYTFTSYYMHWVRQAPGQGLEWMGIINPSGGSTSYAQKFQGRVTMTRDTSTSTVYMELSSLRSEDTAVYYCAREYYYGSGSYYNDYFDYWGQGTLVTVSS
VL: not shown
notes: also called IGHV1-46*01
B2: Fab VH5-51_IGHD5-18*01>3_IGHJ4*01 & V3-4_IGLJ1*01 (Fab, V domains shown)
VH: EVQLVQSGAEVKKPGESLKISCKGSGYSFTSYWIGWVRQMPGKGLEWMGIIYPGDSDTRYSPSFQGQVTISADKSISTAYLQWSSLKASDTAMYYCARRGYSYGYDYFDYWGQGTLVTVSS
VL: QTVVTQEPSFSVSPGGTVTLTCGLSSGSVSTSYYPSWYQQTPGQAPRTLIYSTNTRSSGVPDRFSGSILGNKAALTITGAQADDESDYYCVLYMGSGISYVFGTGTKVTVL
notes: Tested as a Fab made in E. coli; also called IGHV5-51*03

Key:
[1] = target: T2, rHuman P-Cadherin/Fc Chimera, CF (R&D Systems Cat#861-PC) (human, UniProt P22223 108-654); experiment: ECL (MSD multi-spot), antigen spotted on plate; Fab 44.1 nM; blank spot 200
T2 construct: Bought reagent; also called CDH3; Fc part of the bought chimera not given

[2] = target: T3, Recombinant Human DLL4 (R&D Systems Cat#1506-D4/CF) (human, UniProt Q9NR61 27-524); experiment: as above
T3 construct: Bought reagent; also called delta-like protein 4

[3] = target: T4, rHuman CD44/Fc Chimera, CF (R&D Systems Cat#3660-CD) (human, UniProt P16070 21-220); experiment: as above
T4 construct: Bought reagent; Fc part of the bought chimera not given

[4] = target: T5, rHuman ErbB2/Fc Chimera, CF (R&D Systems Cat#1129-ER) (human, UniProt P04626 23-652); experiment: as above
T5 construct: Bought reagent; also called HER2/neu; human epidermal growth factor 2 receptor; Fc part of the bought chimera not given

[5] = target: T6, rHuman HGF R/c-MET/Fc Chimera, CF (R&D Systems Cat#358-MT/CF) (human, UniProt P08581 25-932); experiment: as above
T6 construct: Bought reagent; also called HGF R/Fc; hepatocyte growth factor receptor; Fc part of the bought chimera not given

[6] = target: T7, rHuman EGF R/Fc Chimera, CF (R&D Systems Cat#344-ER) (human, UniProt P00533 25-645); experiment: as above
T7 construct: Bought reagent; also called epidermal growth factor receptor; Fc part of the bought chimera not given

[7] = target: T8, rHuman IGF-1 sR (IGF-1 sR), CF (R&D Systems Cat#391-GR) (human, UniProt P08069 31-932); experiment: as above
T8 construct: Bought soluble receptor; also called insulin-like growth factor-1 soluble receptor; IGF-R1

[8] = target: T9, rHuman Notch-1/Fc Chimera, CF (R&D Systems Cat#3647-TK) (human, UniProt P46531 19-526); experiment: as above
T9 construct: Bought reagent; Fc part of the bought chimera not given

[9] = target: T1, rHuman Erythropoietin R/Fc Chimera, CF …; experiment: as above
[10] = target: T3, Recombinant Human DLL4 (R&D Systems …); experiment: ECL (MSD multi-spot), antigen spotted on plate; Fab 11 nM; blank spot 212
[11] = target: T4, rHuman CD44/Fc Chimera, CF (R&D Systems …); experiment: as above
[12] = target: T5, rHuman ErbB2/Fc Chimera, CF (R&D …); experiment: as above
[13] = target: T6, rHuman HGF R/c-MET/Fc Chimera, CF (R&D …); experiment: as above
[14] = target: T7, rHuman EGF R/Fc Chimera, CF (R&D …); experiment: as above
[15] = target: T9, rHuman Notch-1/Fc Chimera, CF (R&D …); experiment: as above
[16] = target: T1, rHuman Erythropoietin R/Fc Chimera, CF …; experiment: as above
[17] = target: T10, Recombinant Human DLL4 (R&D Systems Cat#1506-D4/CF) (human, UniProt Q9NR61 27-524); experiment: ECL (MSD Multi-Spot) binding assay, antigen spotted on plate; Fab 154 nM; blank spot 447
T10 construct: Bought recombinant protein; also called delta-like protein 4; rHuman DLL4

[18] = target: T11, rHuman ErbB2/Fc Chimera, CF (R&D Systems Cat#1129-ER) (human, UniProt P04626 23-652); experiment: as above
T11 construct: Bought Fc chimera; also called HER2/neu; human epidermal growth factor 2 receptor; Fc part of the bought chimera not given

[19] = target: T12, rHuman CD44/Fc Chimera, CF (R&D Systems Cat#3660-CD) (human, UniProt P16070 21-220); experiment: as above
T12 construct: Bought Fc chimera; Fc part of the bought chimera not given
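Further: blank spot per well as comparator with Hit at signal to blank ratio of 4 or more.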

Binder	ECL signal [1]	ECL signal [2]	ECL signal [3]	ECL signal [4]	ECL signal [5]	ECL signal [6]	ECL signal [7]	ECL signal [8]	ECL signal [9]	ECL signal [10]	ECL signal [11]	ECL signal [12]	ECL signal [13]	ECL signal [14]	ECL signal [15]	ECL signal [16]	ECL signal [17]	ECL signal [18]	ECL signal [19]
B1	343	388	302	347	336	428	309	331	2390	254	296	216	268	201	404	1820			
B2																	40400	1590	960
